Results taken from US20250121076A1, “POLYPEPTIDE DRUG CONJUGATE HAVING NOVEL STRUCTURE AND APPLICATION THEREOF” (MEDSHINE DISCOVERY INC., priority 2021, published 2025).
Where a name gives a salt, the structure may show the parent alone. Starred links: 1 amine or outer side, 2 acyl side, 3 side chain; linkers in the order of their positions; H or OH if unused. Positions of bridges follow the written chain, without caps; N, C: chain ends. Non-standard residues stand in square brackets, D forms with d. Residues, ends and D or L forms follow the SMILES beside them. Chains are numbered I, II in the order given. *: point of attachment. TATA = O=C(CC[*:1])N1CN(C(=O)CC[*:2])CN(C(=O)CC[*:3])C1; Dolaproine = CO[C@@H]([C@@H]1CCCN1)[C@@H](C)C(=O)O; Dil = CC[C@H](C)[C@H](NC)[C@@H](CC(=O)O)OC; X2 = O=C(CCCC(=O)[*:2])NCCC(=O)[*:1]; PABC = O=C(OCc1ccc(N[*:1])cc1)[*:2]; X1 = C[C@@H](N*)[C@@H](O)c1ccccc1; Hyp = O=C(O)[C@@H]1C[C@@H](O)CN1; hArg = N=C(N)NCCCC[C@H](N)C(=O)O; Cit = NC(=O)NCCC[C@H](N)C(=O)O; Pen = CC(C)(S)[C@H](N)C(=O)O; NMeV = CN[C@H](C(=O)O)C(C)C; Sar = CNCC(=O)O

Columns and labels:
Stability in plasma = format: in vitro ADME, Humans; settings: human plasma, 2 μM, 37° C., up to 240 min
Protocol: To test the stability of the compounds of the present invention in plasma from rats, Cynomolgus macaques, and humans.
The corresponding incubation plates, including T0, T10, T30, T60, T120, and T240 incubation plates, were added with a 2 μL working solution of the compound to be tested (100 μM). Three parallel wells were prepared for each sample. Then, 98 μL of blank plasma from SD rats, Cynomolgus macaques, and humans was added to the corresponding incubation plates to which the working solution had been added. All samples were incubated in a 37° C. water bath. […] At the end of each incubation time point, the corresponding incubation plate was removed, added with stop buffer, precipitated, and centrifuged for 20 minutes. Then, 150 μL of the supernatant was analyzed by the LC-MS/MS method. The concentration of the compound to be tested in the sample was semi-quantitatively determined by the liquid chromatography-tandem mass spectrometry (LC-MS/MS) method.

NCI-H1975 = assay: In vitro anti-proliferative activity, CellTiter-Glo; format: cell-based, Human; settings: NCI-H1975, 72 h
Protocol: (§1) To investigate the effect of the compounds of the present invention on inhibiting cell proliferation by detecting the effect of the compounds on cell activity in vitro in tumor cell lines NCI-H1975 and SK-OV-3.
(§2) The tumor cell lines were cultured in a 37° C., no CO2 incubator and a 37° C., 5% CO2 incubator according to the culture conditions shown in Table 15, respectively. The cells were periodically passaged, and cells in a logarithmic growth phase were taken for plating.
(§3) Cells in a logarithmic growth phase were harvested and centrifuged at 1000 rpm for 3 min at room temperature. The supernatant was discarded, and the cells were resuspended in 5 mL of a culture medium. Then, 20 ul of the cell suspension was pipetted and mixed with trypan blue at 1:1 for staining for 3 min to detect cell viability and to count viable cells. The cell density was adjusted to 4000 NCI-H1975/well or 5000 SK-OV-3/well. Then, 90 μL of the cell suspension was added to each culture plate well, and a cell-free culture medium was added to blank control wells. […]
(§4) The detection was performed according to the instructions of the Promega CellTiter-Glo Luminescent Cell Viability Assay kit (Promega-G7573). The luminescence signal was detected on the En Vision® Multi-mode Plate Reader (EnVision 2104-10). […]

SK-OV-3 = assay: as above; format: cell-based, Human; settings: SK-OV-3, 72 h
Protocol: as §1, §2, §3, §4

[1] = In vivo pharmacokinetic analysis in mice; design: species or system CD-1 mice; settings: mouse, in vivo, CD-1 mice, single IV 2 mg/kg, plasma
Protocol: To test the pharmacokinetics of the compounds of the present invention in CD-1 mice
The pharmacokinetic characteristics of the compound after intravenous injection and oral administration were tested in CD-1 mice according to a standard protocol. The compound of the present invention was formulated into a clear solution using 50 mM acetate buffer (pH=5) in 10% sucrose as a vehicle. Two mice were given a single intravenous injection of 2 mg/kg of the compound to be tested. Whole blood was collected at time points of 0.083, 0.25, 0.5, 1, 2, 4, 8, and 24 hours after administration to get plasma. The concentration of the compound to be tested and the concentration of its potential metabolite MMAE were analyzed by the LC-MS/MS method, and the pharmacokinetic parameters, such as maximal concentration (Cmax), clearance (Cl), half-life (T1/2), […] (Vdss), and area under the concentration-time curve (AUC0-last), were calculated by Phoenix WinNonlin software.

Stability in whole blood = format: in vitro ADME, Cynomolgus macaques; settings: Cynomolgus macaque whole blood, 2 μM, 37° C.
Protocol: To test the stability of the compounds of the present invention in whole blood from SD rats and Cynomolgus macaques.
The corresponding incubation plates, including T0, T10, T30, T60, T120, and T240 incubation plates, were added with a 2 μL working solution of the compound to be tested (100 μM). Three parallel wells were prepared for each sample. Then, 98 μL of blank whole blood from SD rats and Cynomolgus macaques was added to the corresponding incubation plates to which the working solution had been added. All samples were incubated in a 37° C. water bath. […] At the end of each incubation time point, the corresponding incubation plate was removed, added with stop buffer, precipitated, and centrifuged for 20 minutes. Then, 100 μL of the supernatant was diluted with 300 μL of ultrapure water, mixed uniformly, and then analyzed by the LC-MS/MS method. The concentration of the compound to be tested in the sample was semi-quantitatively determined by the liquid chromatography-tandem mass spectrometry (LC-MS/MS) method.

In the case of `CC[C@H](C)[C@@H]([C@@H](CC(=O)N1CCC[C@H]1[C@H](OC)[C@@H](C)C(=O)N[C@H](C)[C@@H](O)c1ccccc1)OC)N(C)C(=O)[C@@H](NC(=O)[C@H](C(C)C)N(C)C(=O)OCc1ccc(NC(=O)[C@H](CCCNC(N)=O)NC(=O)[C@@H](NC(=O)CCCC(=O)NCCC(=O)N(C)CC(=O)N(C)CC(=O)N(C)CC(=O)N(C)CC(=O)N(C)CC(=O)N(C)CC(=O)N(C)CC(=O)N(C)CC(=O)N(C)CC(=O)N(C)CC(=O)N[C@H]2CCCCNC(=O)C[C@@H](C(=O)N[C@H]3CSCCC(=O)N4CN5CN(C4)C(=O)CCSC(C)(C)[C@@H](C(N)=O)NC(=O)[C@H](CCCCNC(=N)N)NC(=O)[C@H](Cc4c[nH]c6ccccc46)NC(=O)[C@@H](CC(=O)O)NC(=O)[C@@H]4CCCN4C(=O)[C@H](Cc4c[nH]cn4)NC(=O)[C@H](CC(C)C)NC(=O)[C@H](CSCCC5=O)NC(=O)[C@H](CC(C)C)NC(=O)[C@@H]4CCCN4C(=O)[C@H](CC(N)=O)NC(=O)[C@H](C(C)C)NC(=O)[C@H](CC(C)C)NC(=O)[C@@H]4C[C@@H](O)CN4C3=O)NC(=O)[C@H](CCCCNC(=N)N)NC2=O)C(C)C)cc1)C(C)C` [Acetate salt of PDC_8] (I: [Sar][Sar][Sar][Sar][Sar][Sar][Sar][Sar][Sar][Sar]K[hArg]DC[Hyp]LVNPLCLHP[dD]W[hArg][Pen]-NH2 / II: V[Cit][PABC][NMeV]V[Dil][Dolaproine]-X1; lactam I:11-I:13; linker I:14-I:21-I:28 via TATA; linker I:N-II:N via X2), the half-life (Stability in plasma) is reported as greater than 9.63 h, the IC50 (NCI-H1975) is reported as 79 nM and the IC50 (SK-OV-3) is reported as 586 nM. It also gave an AUC(0-t) [1] of 0.56 µM·h, a C0 [1] of 2640 nM and a clearance [1] of 13 mL/min/kg. The half-life [1] was 0.2 h, the Vd ([1]; read-out: Vdss) was 0.19 L/kg and the half-life (Stability in whole blood) was greater than 9.63 h.
